Measurements published in patent US20110091562A1 (GEORGIA TECH RESEARCH, published 2011).

How the values were obtained:
[1] = molecular target: T1, erythropoietin-producing hepatocellular (Eph) A2 receptor (UniProt P29317 24-976, limits assumed); experiment: flow cytometry on Hey cells after 4 h incubation with fluorescent nanogels
T1 construct: whole, on cells; Endogenous receptor on ovarian cancer cell lines
Protocol: (§1) Flow cytometry. Hey cells were plated at 2.5×10⁵ cells/well in a 12-well, cell culture plate. Cells were allowed to adhere overnight in an incubator at 37° C. in a 5% CO₂ atmosphere. Cells were washed, and fresh medium was added containing YSA-pNIPMAm or SCR-pNIPMAm nanogels at a concentration of 0.8 mg/mL and incubated for four hours. Following incubation, the cells were washed with PBS and removed from the plate by Trypsin-EDTA treatment. The cells were washed with PBS and fixed with 2% (v/v) paraformaldehyde. Cells were analyzed using a LSR Flow Cytometer (BD Biosciences). Data analysis was carried out using FlowJo software.

[2] = molecular target: T1, erythropoietin-producing hepatocellular …; experiment: flow cytometry on Hey cells, 0.8 mg/mL fluorescent nanogels, 4 h incubation; reference is SCR-labeled nanogels
Protocol: as §1

T1 sequence (P29317 24-976 limits assumed): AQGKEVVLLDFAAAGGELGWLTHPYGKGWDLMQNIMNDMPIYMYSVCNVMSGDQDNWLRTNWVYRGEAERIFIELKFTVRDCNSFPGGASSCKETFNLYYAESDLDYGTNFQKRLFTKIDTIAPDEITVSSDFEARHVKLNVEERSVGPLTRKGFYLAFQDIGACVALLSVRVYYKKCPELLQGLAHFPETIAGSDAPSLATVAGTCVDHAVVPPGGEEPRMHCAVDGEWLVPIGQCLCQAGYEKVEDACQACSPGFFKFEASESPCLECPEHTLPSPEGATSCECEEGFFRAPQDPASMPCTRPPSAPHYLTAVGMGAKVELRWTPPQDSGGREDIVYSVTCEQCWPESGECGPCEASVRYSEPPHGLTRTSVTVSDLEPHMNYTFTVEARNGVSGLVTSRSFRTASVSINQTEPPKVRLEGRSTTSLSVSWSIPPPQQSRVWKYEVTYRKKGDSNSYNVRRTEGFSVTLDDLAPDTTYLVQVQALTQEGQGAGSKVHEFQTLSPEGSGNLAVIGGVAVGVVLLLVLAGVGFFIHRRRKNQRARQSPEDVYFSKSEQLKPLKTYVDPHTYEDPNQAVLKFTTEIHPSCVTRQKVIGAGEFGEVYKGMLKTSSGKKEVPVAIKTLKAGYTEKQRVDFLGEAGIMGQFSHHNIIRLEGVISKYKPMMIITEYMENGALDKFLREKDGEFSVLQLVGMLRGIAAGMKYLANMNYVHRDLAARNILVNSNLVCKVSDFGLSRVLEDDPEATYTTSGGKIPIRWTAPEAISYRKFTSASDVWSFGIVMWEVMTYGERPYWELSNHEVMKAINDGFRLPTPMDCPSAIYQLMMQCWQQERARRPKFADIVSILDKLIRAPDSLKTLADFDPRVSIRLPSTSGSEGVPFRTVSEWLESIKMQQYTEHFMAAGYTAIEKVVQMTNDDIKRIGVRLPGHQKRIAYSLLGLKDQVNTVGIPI

| binding result [1] | fold fluorescence relative to SCR-labeled nanogels [2] [fold] | Binder |
| --- | --- | --- |
| no binding (tested: 0.8 mg/mL nanogels) |  | DYPSMAMYSPSVC (C-terminal cysteine coupled by maleimide (EMCA) to primary amines of the nanogel shell, Control peptide with the same amino acid composition as YSA, tethered to the same nanogels; also called SCR-pNIPMAm nanogels; SCR-labeled nanogels) [Scrambled (SCR) peptide (DYPSMAMYSPSVC) conjugated to core/shell pNIPMAm nanogels] |
|  | ~10 | YSAYPDSVPMMSC (C-terminal cysteine coupled by maleimide (epsilon-maleimidocaproic acid, EMCA) to primary amines of the nanogel shell, The peptide that was made and conjugated carries the C-terminal Cys; also called YSA-conjugated nanogels; YSA-pNIPMAm nanogels) [YSA peptide (YSAYPDSVPMMSC) conjugated to core/shell pNIPMAm nanogels] |
